Reference: patent publication US7125658B2, “Small protein that interacts with a ribonucleotide reductase subunit and uses thereof” (The Trustees of Columbia University in the City of New York, priority 1998, dated 2006)

T1: GAD-Rnr2 two-hybrid fusion (plasmid pWJ746) (yeast (Saccharomyces cerevisiae), UniProt P09938 1-399)
T1 construct: Whole RNR2 ORF as cloned
T1 sequence (looked up): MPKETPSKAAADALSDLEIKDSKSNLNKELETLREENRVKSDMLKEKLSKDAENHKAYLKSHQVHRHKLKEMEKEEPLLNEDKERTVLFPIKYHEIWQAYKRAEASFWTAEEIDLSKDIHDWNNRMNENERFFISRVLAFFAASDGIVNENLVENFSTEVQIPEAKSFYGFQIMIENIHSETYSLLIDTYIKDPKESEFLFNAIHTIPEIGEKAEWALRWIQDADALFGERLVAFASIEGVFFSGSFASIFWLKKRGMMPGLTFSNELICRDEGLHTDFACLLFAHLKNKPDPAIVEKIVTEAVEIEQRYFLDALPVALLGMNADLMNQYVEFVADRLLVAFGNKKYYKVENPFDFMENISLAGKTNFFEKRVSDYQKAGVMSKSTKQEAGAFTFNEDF

T2: GAD (Gal4 activation domain alone, empty vector control) (UniProt P04386 768-881)
T2 sequence (looked up): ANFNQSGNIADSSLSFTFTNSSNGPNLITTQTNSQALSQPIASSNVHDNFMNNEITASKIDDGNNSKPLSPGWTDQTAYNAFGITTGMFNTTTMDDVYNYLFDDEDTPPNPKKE

T3: GAD-Rnr1 two-hybrid fusion (plasmid pWJ745) (yeast (Saccharomyces cerevisiae), UniProt P21524 1-888)
T3 sequence (looked up): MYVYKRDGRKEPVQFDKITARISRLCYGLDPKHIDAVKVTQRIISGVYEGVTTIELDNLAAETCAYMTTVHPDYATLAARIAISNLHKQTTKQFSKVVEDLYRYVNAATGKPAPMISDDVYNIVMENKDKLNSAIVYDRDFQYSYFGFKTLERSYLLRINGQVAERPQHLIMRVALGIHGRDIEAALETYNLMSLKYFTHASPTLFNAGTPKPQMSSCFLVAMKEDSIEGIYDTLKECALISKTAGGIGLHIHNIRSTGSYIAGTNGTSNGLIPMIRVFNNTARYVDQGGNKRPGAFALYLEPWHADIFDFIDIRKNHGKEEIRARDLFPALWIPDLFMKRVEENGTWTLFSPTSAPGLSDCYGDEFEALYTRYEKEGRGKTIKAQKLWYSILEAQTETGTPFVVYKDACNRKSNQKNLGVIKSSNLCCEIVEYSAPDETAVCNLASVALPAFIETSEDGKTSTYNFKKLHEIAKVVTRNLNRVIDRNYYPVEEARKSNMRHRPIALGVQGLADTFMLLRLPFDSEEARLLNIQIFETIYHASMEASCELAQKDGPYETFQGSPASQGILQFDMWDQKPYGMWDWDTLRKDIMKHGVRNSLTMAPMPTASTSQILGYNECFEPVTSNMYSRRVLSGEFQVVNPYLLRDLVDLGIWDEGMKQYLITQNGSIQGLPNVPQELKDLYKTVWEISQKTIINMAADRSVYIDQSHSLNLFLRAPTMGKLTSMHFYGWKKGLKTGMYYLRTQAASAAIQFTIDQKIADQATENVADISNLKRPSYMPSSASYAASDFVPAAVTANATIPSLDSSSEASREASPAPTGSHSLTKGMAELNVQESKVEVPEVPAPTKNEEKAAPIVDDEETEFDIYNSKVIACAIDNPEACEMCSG

B1: GBD-Sml1 two-hybrid fusion (plasmid pWJ728) (other)
chain: MKLLSSIEQACDICRLKKLKCSKEKPKCAKCLKNNWECRYSPKTKRSPLTRAHLTEVESRLERLEQLFLLIFPREDLDMILKMDSLQDIKALLTGLFVQDNVNKDAVTDRLASVETDMPLTLRQHRISATSSSEESSNKGQRQLTVSMQNSQDYFYAQNRCQQQQAPSTLRTVTMAEFRRVPLPPMAEVPMLSTQNSMGSSASASASSLEMWEKDLEERLNSIDHDMNNNKFGSGELKSMFNQGKVEEMDF
notes: also called GBD fusion SML1
B2: GBD-Rnr2 two-hybrid fusion (plasmid pWJ729) (other, UniProt P04386 1-147, looked up)
chain: MKLLSSIEQACDICRLKKLKCSKEKPKCAKCLKNNWECRYSPKTKRSPLTRAHLTEVESRLERLEQLFLLIFPREDLDMILKMDSLQDIKALLTGLFVQDNVNKDAVTDRLASVETDMPLTLRQHRISATSSSEESSNKGQRQLTVSMPKETPSKAAADALSDLEIKDSKSNLNKELETLREENRVKSDMLKEKLSKDAENHKAYLKSHQVHRHKLKEMEKEEPLLNEDKERTVLFPIKYHEIWQAYKRAEASFWTAEEIDLSKDIHDWNNRMNENERFFISRVLAFFAASDGIVNENLVENFSTEVQIPEAKSFYGFQIMIENIHSETYSLLIDTYIKDPKESEFLFNAIHTIPEIGEKAEWALRWIQDADALFGERLVAFASIEGVFFSGSFASIFWLKKRGMMPGLTFSNELICRDEGLHTDFACLLFAHLKNKPDPAIVEKIVTEAVEIEQRYFLDALPVALLGMNADLMNQYVEFVADRLLVAFGNKKYYKVENPFDFMENISLAGKTNFFEKRVSDYQKAGVMSKSTKQEAGAFTFNEDF
B3: GAD-Sml1 two-hybrid fusion (plasmid pWJ684, pACTII) (other, not shown: large carriers)
chain: MQNSQDYFYAQNRCQQQQAPSTLRTVTMAEFRRVPLPPMAEVPMLSTQNSMGSSASASASSLEMWEKDLEERLNSIDHDMNNNKFGSGELKSMFNQGKVEEMDF

Columns and labels:
[1] = target: T1, GAD-Rnr2 two-hybrid fusion (plasmid …); assay: yeast two-hybrid, GBD-Sml1 with GAD-Rnr2
Source text: (§1) We next tested the possibility that Sml1 interacts with the subunit(s) of RNR since such interactions may provide a regulatory mechanism to inhibit RNR activity. […] In addition, Rnr1 and Rnr2 each interacts with itself, however these interactions are much weaker than the interaction between Sml1 and Rnr1 (Table 2).
(§2) The strains and plasmids for two-hybrid analysis were PJ69-4A, pGBD-C2, pGAD-C2 (James et al., 1996) and pACTII (CLONTECH® Inc.). The primer pair pB-SML1 5' (SEQ ID NO: 11) and pGBD-SML1 3' (SEQ ID NO: 13) (Table 4) was used to amplify the SML1 ORF. After digestion with BamHI and PstI, this PCR product was cloned into the BamHI-PstI sites of pGBD-C2 to construct plasmid pWJ728. Similarly, plasmid pWJ684 contains a BamHI fragment from the PCR product of the SML1 ORF generated using the primer pair pB-SML1 5' and pB-SML1 3' (SEQ ID NO: 12) (Table 4) and inserted at the BamHI site of pACTII. PCR fragments containing the RNR1 or the RNR2 ORF were generated by primer pairs RNR1-ORF 5' (SEQ ID NO: 14) and RNR1 3' (SEQ ID NO: 15) or RNR2-ORF 5' (SEQ ID NO: 17) and RNR2 3' (SEQ ID NO: 16) (Table 4). These fragments were cloned into the BamHI-PstI site of pGBD-C2 and pGAD-C2 to construct pWJ731 and pWJ745 or pWJ729 and pWJ746 respectively.
(§3) The GAL1-HIS3 reporter was assayed on SC-HIS-LEU-TRP medium plus 1-2 mM 3-aminotriazole. […]

[2] = target: T2, GAD (Gal4 activation domain alone, …); assay: cell-based or functional assay
[3] = target: T3, GAD-Rnr1 two-hybrid fusion (plasmid …); assay: cell-based or functional assay
[4] = target: B3; assay: cell-based or functional assay
[5] = target: T1, GAD-Rnr2 two-hybrid fusion (plasmid …); assay: cell-based or functional assay
[6] = target: B2; assay: yeast two-hybrid, GAD-Sml1 with GBD-Rnr2
Source text: as §1, §2, §3

| Binder | binding result [1] | two-hybrid LacZ activity [2] [Miller Units] | two-hybrid LacZ activity [3] [Miller Units] | two-hybrid LacZ activity [4] [Miller Units] | two-hybrid LacZ activity [5] [Miller Units] | binding result [6] |
| --- | --- | --- | --- | --- | --- | --- |
| B1 | no binding | 4 | 31 | 3.3 | – | – |
| B2 | – | 1.4 | – | 0.9 | 2.3 | – |
| B3 | – | – | – | – | – | no binding |
